# Measured values: patent US8895526B2, “Identification of RNAI targets and use of RNAI for rational therapy of chemotherapy-resistant leukemia and other cancers” (Cold Spring Harbor Laboratory, priority 2009, dated 2014)
# B1: Cacna1f.3314: shRNA, SEQ ID NO: 99 (nucleic acid)
# chain: TGCTGTTGACAGTGAGCGACTGGCCTGCGCTACTATACAATAGTGAAGCCACAGATGTATTGTATAGTAGCGCAGGCCAGCTGCCTACTGCCTCGGA
# B2: Plod3.2501: shRNA, SEQ ID NO: 168 (nucleic acid)
# chain: TGCTGTTGACAGTGAGCGAACCGTTGATATCCACATGAAATAGTGAAGCCACAGATGTATTTCATGTGGATATCAACGGTGTGCCTACTGCCTCGGA
# B3: Atp6v0d1.481: shRNA, SEQ ID NO: 93 (nucleic acid)
# chain: TGCTGTTGACAGTGAGCGACACCAGCGTTCAATAGCTGAATAGTGAAGCCACAGATGTATTCAGCTATTGAACGCTGGTGCTGCCTACTGCCTCGGA
# B4: Centa1.1387: shRNA, SEQ ID NO: 105 (nucleic acid)
# chain: TGCTGTTGACAGTGAGCGCCAGAACCTCATTAAAGTTGAATAGTGAAGCCACAGATGTATTCAACTTTAATGAGGTTCTGATGCCTACTGCCTCGGA
# B5: Park2.2222: shRNA, SEQ ID NO: 158 (nucleic acid)
# chain: TGCTGTTGACAGTGAGCGCAACAGAGAAAGTGCCTATAAATAGTGAAGCCACAGATGTATTTATAGGCACTTTCTCTGTTATGCCTACTGCCTCGGA
# B6: Flot2.1039: shRNA, SEQ ID NO: 120 (nucleic acid)
# chain: TGCTGTTGACAGTGAGCGACAAGGTGACATCAGAAGTAAATAGTGAAGCCACAGATGTATTTACTTCTGATGTCACCTTGCTGCCTACTGCCTCGGA
# B7: Plcb2.3742: shRNA, SEQ ID NO: 167 (nucleic acid)
# chain: TGCTGTTGACAGTGAGCGCAGGGACCTTAATACTCAGATATAGTGAAGCCACAGATGTATATCTGAGTATTAAGGTCCCTTTGCCTACTGCCTCGGA
# B8: Kcnh7.2642: shRNA, SEQ ID NO: 134 (nucleic acid)
# chain: TGCTGTTGACAGTGAGCGCATGGTTCATCTTTATGCCAAATAGTGAAGCCACAGATGTATTTGGCATAAAGATGAACCATTTGCCTACTGCCTCGGA
# B9: F10.1044: shRNA, SEQ ID NO: 117 (nucleic acid)
# chain: TGCTGTTGACAGTGAGCGACACCATCTTGAATGAGTTCTATAGTGAAGCCACAGATGTATAGAACTCATTCAAGATGGTGCTGCCTACTGCCTCGGA
# B10: Hpgd.1070: shRNA, SEQ ID NO: 132 (nucleic acid)
# chain: TGCTGTTGACAGTGAGCGCAAACTAGGTTATAACCTATAATAGTGAAGCCACAGATGTATTATAGGTTATAACCTAGTTTTTGCCTACTGCCTCGGA
# B11: Slc15a3.1086: shRNA, SEQ ID NO: 180 (nucleic acid)
# chain: TGCTGTTGACAGTGAGCGCCTGGTTCTATTGGAGCATCAATAGTGAAGCCACAGATGTATTGATGCTCCAATAGAACCAGTTGCCTACTGCCTCGGA
# B12: Syt17.721: shRNA, SEQ ID NO: 184 (nucleic acid)
# chain: TGCTGTTGACAGTGAGCGCCGAGGAGATCATGTCCAAGTATAGTGAAGCCACAGATGTATACTTGGACATGATCTCCTCGTTGCCTACTGCCTCGGA
# B13: Gab3.527: shRNA, SEQ ID NO: 125 (nucleic acid)
# chain: TGCTGTTGACAGTGAGCGCGACGGAAACACTAATAGTGTATAGTGAAGCCACAGATGTATACACTATTAGTGTTTCCGTCATGCCTACTGCCTCGGA
# B14: Vnn3.345: shRNA, SEQ ID NO: 189 (nucleic acid)
# chain: TGCTGTTGACAGTGAGCGAACGCCAGAAGATGGAATCTATTAGTGAAGCCACAGATGTAATAGATTCCATCTTCTGGCGTCTGCCTACTGCCTCGGA
# B15: Acsl1.3559: shRNA, SEQ ID NO: 88 (nucleic acid)
# chain: TGCTGTTGACAGTGAGCGCCAGCATTTCACTTTACTGCAATAGTGAAGCCACAGATGTATTGCAGTAAAGTGAAATGCTGTTGCCTACTGCCTCGGA
# B16: Ncf1.2370: shRNA, SEQ ID NO: 150 (nucleic acid)
# chain: TGCTGTTGACAGTGAGCGCCAGAAGATCAATGCACATAAATAGTGAAGCCACAGATGTATTTATGTGCATTGATCTTCTGTTGCCTACTGCCTCGGA
# B17: Gdi1.2355: shRNA, SEQ ID NO: 130 (nucleic acid)
# chain: TGCTGTTGACAGTGAGCGACTCTAGTATATTTCACAGAAATAGTGAAGCCACAGATGTATTTCTGTGAAATATACTAGAGCTGCCTACTGCCTCGGA
# B18: Slc6a13.1196: shRNA, SEQ ID NO: 182 (nucleic acid)
# chain: TGCTGTTGACAGTGAGCGACTGGGACTAGATAGCCAGTTTTAGTGAAGCCACAGATGTAAAACTGGCTATCTAGTCCCAGGTGCCTACTGCCTCGGA
# B19: EG277089.605: shRNA, SEQ ID NO: 115 (nucleic acid)
# chain: TGCTGTTGACAGTGAGCGCCTCAATCTCATTGGTGGCTTATAGTGAAGCCACAGATGTATAAGCCACCAATGAGATTGAGATGCCTACTGCCTCGGA
# B20: Gdi1.1120: shRNA, SEQ ID NO: 129 (nucleic acid)
# chain: TGCTGTTGACAGTGAGCGCCAACAGGAAGTCAGACATCTATAGTGAAGCCACAGATGTATAGATGTCTGACTTCCTGTTGATGCCTACTGCCTCGGA
# B21: Plod3.3138: shRNA, SEQ ID NO: 169 (nucleic acid)
# chain: TGCTGTTGACAGTGAGCGACTCAGCCTCACTTTCAATAAATAGTGAAGCCACAGATGTATTTATTGAAAGTGAGGCTGAGGTGCCTACTGCCTCGGA
# B22: EG408196.85: shRNA, SEQ ID NO: 116 (nucleic acid)
# chain: TGCTGTTGACAGTGAGCGCAGCGAGAACCAGTGAGAAATATAGTGAAGCCACAGATGTATATTTCTCACTGGTTCTCGCTTTGCCTACTGCCTCGGA
# B23: Trpm4.2813: shRNA, SEQ ID NO: 188 (nucleic acid)
# chain: TGCTGTTGACAGTGAGCGACAAGATTGTCATAGTGAGCAATAGTGAAGCCACAGATGTATTGCTCACTATGACAATCTTGGTGCCTACTGCCTCGGA
# B24: Dio2.2087: shRNA, SEQ ID NO: 112 (nucleic acid)
# chain: TGCTGTTGACAGTGAGCGCCAGGAATTTGGTTAAATGGAATAGTGAAGCCACAGATGTATTCCATTTAACCAAATTCCTGTTGCCTACTGCCTCGGA
# Legend:
# [1] = test system: tet-on competent MLL/AF9+Nras AML; assay: Pooled negative selection RNAi screening (deep sequencing); type: cell-based, mouse; conditions: deep sequencing reads, On Dox compared to T0
# Excerpt: (§1) In addition to the analysis of single shRNAs for inhibitory effects in vitro and in vivo, the combination of tet-on competent cancer models and tet-regulatable shRNA expression vectors allowing for monitoring shRNA expression through fluorescent and other reporter genes (e.g. TRMPV and derivates) facilitates pooled shRNA negative selection screening (FIG. 37). In such approaches a pool of over 1,000 shRNAs are retrovirally transduced into tet-on competent cancer models (here MLL/AF9+Nras AML) and selected for shRNA containing cells by either drug selection (e.g. G418) or fluorescence-activated cell sorting (FACS). Selected cell populations harboring a library of shRNAs then can be cultured in the absence or presence of doxycyline (off dox and on dox, respectively) or injected into syngeneic recipient mice that are either treated with doxycyline or left untreated.
# (§2) The representation of each shRNA within the pool can be effectively assessed by deep sequencing of shRNA cassettes in a given cell population. For this, genomic DNA is extracted from leukemia cells containing the shRNA pool, and the shRNA guide or passenger strand (21-22 target gene specific nucleotides of the shRNA) by PCR using primers specific for common sequences flanking the gene specific part of the shRNA (e.g. miR30 19 nt loop and miR30 common 3′ sequence). The primers also contain 5′-adapters required for deep sequencing (e.g. for Illumina/Solexa sequencing primers are p5+mir3: 5′-[…]-3′ (SEQ ID NO: 215) and p7+Loop: 5′-[…]-3′ (SEQ ID NO: 216)). Deep sequencing is subsequently performed using a primer binding the flanking nucleotide sequence next to the target gene specific part of the shRNA (for Illumina/Solexa platforms the primer is mir30EcoR1Seq: 5′-TAGCCCCTTGAATTCCGA GGCAGTAGGCA-3′ (SEQ ID NO: 217)).
# (§3) The use of shRNA vectors that allow for monitoring of shRNA expression through fluorescent and other reporter genes (e.g. TRMPV) in combination with tet-on competent mouse models facilitates the isolation of pure shRNA expressing cell populations (e.g. by FACS, for TRMPV by sorting of Venus/dsRed double positive cells (FIG. 38). This selection of shRNA expressing cells prior to DNA isolation strongly reduces the background caused by cell populations with insufficient shRNA induction, which are predicted to contain genomic representation of the whole shRNA library without shRNA specific shifts in representation. The final readout is based on the comparison of shRNA representation (i.e. deep sequencing read numbers) before the assay (t0) or from cell populations left without doxycycline treatment (off dox) to those where shRNA were induced and cells subsequently sorted for shRNA expressing cells (on dox). shRNA with inhibitory effects are predicted to loose representation (show less reads) on dox compared to t0 and off dox.
# (§4) This pooled is RNAi screening strategy can be applied to rapidly survey inhibitory effects of large pools of shRNAs (˜1000 at a time) in different tet-on competent cancer models and normal control cells (FIG. 39). For example, a pool of 1166 shRNAs targeting 836 predominantly druggable genes associated with MLL fusion proteins in human leukemia and mouse models of MLL/AF9-induced AML (MLL cure library) was analyzed in pooled negative selection screening in tet-on competent MLL/AF9+Nras AML and immortalized murine embryonic fibroblasts (Mef) in parallel. To establish and validate this screening approach, the pool also contained 64 control shRNAs each of which have been previously analyzed for inhibitory effects in both AML cells and Mefs using the same experimental system (FIG. 40).
# (§5) After pooling of 1166 experimental and 64 control shRNAs the presence of shRNAs was verified by deep sequencing of shRNAs within the plasmid vector pool (FIG. 41). […]
# [2] = test system: immortalized murine embryonic fibroblasts (Mef); assay: as above; type: cell-based; conditions: deep sequencing reads, on dox compared to initial representation
# Excerpt: as §1, §2, §3, §4, §5
Molecule,Fold depletion in AML [1] [Fold],Fold depletion in Mef [2] [Fold]
B1,12.52,2.14
B2,12.30,2.62
B3,12.03,1.90
B4,11.44,0.77
B5,11.36,1.32
B6,10.89,2.72
B7,10.81,2.25
B8,10.58,0.92
B9,10.52,1.25
B10,10.43,1.10
B11,10.29,2.32
B12,10.25,0.86
B13,10.22,0.46
B14,10.19,2.59
B15,10.18,1.45
B16,10.06,2.33
B17,9.92,2.86
B18,9.77,1.52
B19,25.37,2.02
B20,24.81,1.98
B21,21.28,0.71
B22,20.79,0.25
B23,20.52,2.33
B24,20.52,2.52
